{"source": "patent US20240101677A1", "about": "(Innovent, published 2024)", "key": {"[1]": {"biological_target": "T1, CD16A on human primary NK cells (human, UniProt P08637 17-254)", "T1 construct": "whole, on cells; also called primary natural killer (NK) cells", "T1 sequence (P08637 17-254)": "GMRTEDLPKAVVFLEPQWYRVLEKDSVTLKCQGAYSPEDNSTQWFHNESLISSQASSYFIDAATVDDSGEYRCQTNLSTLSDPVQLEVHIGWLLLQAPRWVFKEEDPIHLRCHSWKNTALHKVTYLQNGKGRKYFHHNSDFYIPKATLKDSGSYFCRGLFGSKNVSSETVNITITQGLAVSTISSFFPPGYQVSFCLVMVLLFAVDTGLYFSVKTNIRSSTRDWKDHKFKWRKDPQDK", "test": "flow cytometry (MFI, PE-A) on human primary NK cells, donor SLB190071", "experimental": "(§1) Human PBMC cells were thawed (Sailybio, SLB190084 & SLB190071), and NK cells were enriched and isolated using a human NK cell enrichment kit (Stemcell, 19055) and centrifuged at 400 g for 5 min. The supernatant was removed, and the cells were resuspended in PBS. After counting, the cells were adjusted to a density of 2×10⁶ cells/mL, and the cell suspension was added to a U-bottom 96-well plate at 100 μL/well. Then, the test antibody was added to make a final concentration of 100 nM, and subjected to a 6-fold dilution to obtain 10 gradients. The mixture was left to stand on ice for a reaction for 1 h. The mixture was centrifuged at 300 g for 5 min, and the supernatant was removed. The cells were washed once with PBS. The mixture was centrifuged at 300 g for 5 min, and PBS was removed. 100 μL of PE-anti-human Fc antibody (Southern Biotech, 2040-09) diluted at a ratio of 1:200 was added to each well. The mixture was incubated on ice for 30 min in the dark. The mixture was centrifuged at 400 g for 5 min, and the supernatant was removed. The cells were washed twice with PBS, and then resuspended in 100 μL of PBS. A fluorescence shift assay was performed by using a flow cytometer (BD, Facscelesta). […] The control antibody used in FIGS. 2A and 2B was the same as that in Example 5.\nIn this example, the binding of anti-CD16A/HER2 and anti-CD16A/BCMA bispecific antibodies (subjected to gradient dilution) of the present invention to primary NK cells was assayed by flow cytometry. The assay method was the same as that in Example 6."}, "[2]": {"biological_target": "T2, human CD16A (type 158V) on GS-CHO cells (human, UniProt P08637 17-254)", "T2 construct": "whole, on cells; also called GS-CHO cells expressing human CD16A", "T2 sequence (P08637 17-254 F176V)": "as the sequence (P08637 17-254) above, with F160V counted along it", "test": "flow cytometry (MFI, PE-anti-human Fc) on GS-CHO cells expressing human CD16A (type 158V)", "experimental": "After counting, the cells were adjusted to a density of 2×10⁶ cells/mL, and the cell suspension was added to a U-bottom 96-well plate at 100 μL/well. […] The mixture was centrifuged at 300 g for 5 min, and the supernatant was removed. The cells were washed once with PBS. The mixture was centrifuged at 300 g for 5 min, and PBS was removed. 100 μL of PE-anti-human Fc antibody (Southern Biotech, 2040-09) diluted at a ratio of 1:200 was added to each well. The mixture was incubated on ice for 30 min in the dark. The mixture was centrifuged at 400 g for 5 min, and the supernatant was removed. The cells were washed twice with PBS, and then resuspended in 100 μL of PBS. A fluorescence shift assay was performed by using a flow cytometer (BD, Facscelesta)."}, "[3]": {"biological_target": "T1, CD16A on human primary NK cells", "test": "flow cytometry (MFI, PE-anti-human Fc) on human primary NK cells, donor SLB190084", "experimental": "as §1"}}}
{"binder": "16A067 (bispecific antibody, human IgG1, kappa, L234A L235A, 1+1 knob-into-hole format, sdAb-Fc arm and Fab-Fc arm, LALA; also called anti-CD16A/BCMA bispecific antibody (Y88A3 x ADI384-56)) heavy 1: not shown heavy 2: EVQLVESGGGLVQPGRSLRLSCAASGFTFGDYAIHWVRQAPGKGLEWVSGISWDSSSIAYADSVKGRFTISRDNAKNSLYLQMNSLRAEDTAVYYCAKDSPVRDSFGSIAFDIWGQGTMVTVSSASTKGPSVFPLAPSSKSTSGGTAALGCLVKDYFPEPVTVSWNSGALTSGVHTFPAVLQSSGLYSLSSVVTVPSSSLGTQTYICNVNHKPSNTKVDKKVEPKSCDKTHTCPPCPAPEAAGGPSVFLFPPKPKDTLMISRTPEVTCVVVDVSHEDPEVKFNWYVDGVEVHNAKTKPREEQYNSTYRVVSVLTVLHQDWLNGKEYKCKVSNKALPAPIEKTISKAKGQPREPQVCTLPPSRDELTKNQVSLSCAVKGFYPSDIAVEWESNGQPENNYKTTPPVLDSDGSFFLVSKLTVDKSRWQQGNVFSCSVMHEALHNHYTQKSLSLSPGK light: not shown", "values": [{"measurement": "EC50", "setting": "[1]", "value": 14.2, "unit": "nM"}]}
{"binder": "16A068 (bispecific antibody, human IgG1, kappa, L234A L235A, 1+1 knob-into-hole format, sdAb-Fc arm and Fab-Fc arm, LALA; also called anti-CD16A/BCMA bispecific antibody (Y99F6 x ADI384-56)) heavy 1: not shown heavy 2: EVQLVESGGGLVQPGRSLRLSCAASGFTFGDYAIHWVRQAPGKGLEWVSGISWDSSSIAYADSVKGRFTISRDNAKNSLYLQMNSLRAEDTAVYYCAKDSPVRDSFGSIAFDIWGQGTMVTVSSASTKGPSVFPLAPSSKSTSGGTAALGCLVKDYFPEPVTVSWNSGALTSGVHTFPAVLQSSGLYSLSSVVTVPSSSLGTQTYICNVNHKPSNTKVDKKVEPKSCDKTHTCPPCPAPEAAGGPSVFLFPPKPKDTLMISRTPEVTCVVVDVSHEDPEVKFNWYVDGVEVHNAKTKPREEQYNSTYRVVSVLTVLHQDWLNGKEYKCKVSNKALPAPIEKTISKAKGQPREPQVCTLPPSRDELTKNQVSLSCAVKGFYPSDIAVEWESNGQPENNYKTTPPVLDSDGSFFLVSKLTVDKSRWQQGNVFSCSVMHEALHNHYTQKSLSLSPGK light: not shown", "values": [{"measurement": "EC50", "setting": "[1]", "value": 50.5, "unit": "nM"}]}
{"binder": "16A069 (bispecific antibody, human IgG1, kappa, L234A L235A, 1+1 knob-into-hole format, sdAb-Fc arm and Fab-Fc arm, LALA; also called anti-CD16A/BCMA bispecific antibody (Y100D6 x ADI384-56)) heavy 1: not shown heavy 2: EVQLVESGGGLVQPGRSLRLSCAASGFTFGDYAIHWVRQAPGKGLEWVSGISWDSSSIAYADSVKGRFTISRDNAKNSLYLQMNSLRAEDTAVYYCAKDSPVRDSFGSIAFDIWGQGTMVTVSSASTKGPSVFPLAPSSKSTSGGTAALGCLVKDYFPEPVTVSWNSGALTSGVHTFPAVLQSSGLYSLSSVVTVPSSSLGTQTYICNVNHKPSNTKVDKKVEPKSCDKTHTCPPCPAPEAAGGPSVFLFPPKPKDTLMISRTPEVTCVVVDVSHEDPEVKFNWYVDGVEVHNAKTKPREEQYNSTYRVVSVLTVLHQDWLNGKEYKCKVSNKALPAPIEKTISKAKGQPREPQVCTLPPSRDELTKNQVSLSCAVKGFYPSDIAVEWESNGQPENNYKTTPPVLDSDGSFFLVSKLTVDKSRWQQGNVFSCSVMHEALHNHYTQKSLSLSPGK light: not shown", "values": [{"measurement": "EC50", "setting": "[1]", "value": 15.3, "unit": "nM"}]}
{"binder": "16A070 (bispecific antibody, human IgG1, kappa, L234A L235A, 1+1 knob-into-hole format, sdAb-Fc arm and Fab-Fc arm, LALA; also called anti-CD16A/BCMA bispecific antibody (Y95H1 x ADI384-56)) heavy 1: not shown heavy 2: EVQLVESGGGLVQPGRSLRLSCAASGFTFGDYAIHWVRQAPGKGLEWVSGISWDSSSIAYADSVKGRFTISRDNAKNSLYLQMNSLRAEDTAVYYCAKDSPVRDSFGSIAFDIWGQGTMVTVSSASTKGPSVFPLAPSSKSTSGGTAALGCLVKDYFPEPVTVSWNSGALTSGVHTFPAVLQSSGLYSLSSVVTVPSSSLGTQTYICNVNHKPSNTKVDKKVEPKSCDKTHTCPPCPAPEAAGGPSVFLFPPKPKDTLMISRTPEVTCVVVDVSHEDPEVKFNWYVDGVEVHNAKTKPREEQYNSTYRVVSVLTVLHQDWLNGKEYKCKVSNKALPAPIEKTISKAKGQPREPQVCTLPPSRDELTKNQVSLSCAVKGFYPSDIAVEWESNGQPENNYKTTPPVLDSDGSFFLVSKLTVDKSRWQQGNVFSCSVMHEALHNHYTQKSLSLSPGK light: not shown", "values": [{"measurement": "EC50", "setting": "[1]", "value": 7.96, "unit": "nM"}]}
{"binder": "Isotype-IgG1-Fc-LALA (antibody, also called anti-Hen Egg Lysozyme (HEL) antibody; negative control) variable region (heavy or light not stated; listed first): EVRLLESGGGLVQPGGSLRLSCAASGFTFSNYAMGWVRQAPGKCLEWVSAISGSGGSTYYADSVKGRFTTSRDDSKNALYLQMNSLRAEDTAVYYCARGGPGWYAADVWGQGTTVTVSS variable region (heavy or light not stated; listed second): DIQMTQSPSSLSASVGDRVTITCRASQSISSYLNWYQQKPGKAPKLLIYAASSLQSGVPSRFSGSGSGTDFTLTISSLQPEDFATYYCQQADLPAFAFGCGTKVEIK", "values": [{"measurement": "binding result", "setting": "[2]", "value": "no binding (tested: log 2.8 (about 600 nM))"}, {"measurement": "binding result", "setting": "[3]", "value": "no binding (tested: log 2 (100 nM))"}]}
